Measured values taken from patent EP4714971A1 (Shanghai Hansoh Biomedical Co., Ltd., dated 2024).

B1: hSC200 (hSC17.200) (antibody, human IgG1, kappa, V domains shown)
VH: EVQLVQSGAEVKKPGESLKISCKGSGYSFTSSWINWVRQMPGKGLEWMGRIYPGEGDTNYNGNFEGQVTISADKSISTAYLQWSSLKASDTAMYYCTRGLVMDYWGQGTLVTVSS
VL: EIVLTQSPATLSLSPGERATLSCRASQSVDYNGISYMHWYQQKPGQAPRLLIYAASNVQSGIPARFSGSGSGTDFTLTISSLEPEDFAVYYCQQSIEDPPTFGGGTKVEIKR
notes: also called control molecule; control antibody
B2: PR3178 (antibody, human IgG1, kappa, V domains shown)
VH: QVQLVQSGAEVKKPGASVKVSCKASGYTFTDYEMHWVRQAPGQGLEWMGGIDPESDNTVYNQKFKGRVTLTEDTSTSTAYMELRSLRSEDTAVYYCTRGDWYFDVWGQGTTVTVSS
VL: DIVMTQSPDSLAVSLGERATINCKSSQSLLNSRTRENYLAWYQQKPGQPPKLLIYWASTRESGVPDRFSGSGSGTDFTLTISSLQAEDVAVYYCGQSYNLFTFGQGTKLEIKR
notes: Humanized, human IgG1, kappa; also called humanized antibody of cAb3009

Columns and labels:
[1] = biological target: T1, human SEZ6 expressed on stably transfected CHO-K1 cells (human, UniProt Q53EL9 20-994); assay: flow cytometry on CHO-K1 cells expressing human SEZ6
T1 construct: also called CHO-SEZ6; hSEZ6
T1 sequence: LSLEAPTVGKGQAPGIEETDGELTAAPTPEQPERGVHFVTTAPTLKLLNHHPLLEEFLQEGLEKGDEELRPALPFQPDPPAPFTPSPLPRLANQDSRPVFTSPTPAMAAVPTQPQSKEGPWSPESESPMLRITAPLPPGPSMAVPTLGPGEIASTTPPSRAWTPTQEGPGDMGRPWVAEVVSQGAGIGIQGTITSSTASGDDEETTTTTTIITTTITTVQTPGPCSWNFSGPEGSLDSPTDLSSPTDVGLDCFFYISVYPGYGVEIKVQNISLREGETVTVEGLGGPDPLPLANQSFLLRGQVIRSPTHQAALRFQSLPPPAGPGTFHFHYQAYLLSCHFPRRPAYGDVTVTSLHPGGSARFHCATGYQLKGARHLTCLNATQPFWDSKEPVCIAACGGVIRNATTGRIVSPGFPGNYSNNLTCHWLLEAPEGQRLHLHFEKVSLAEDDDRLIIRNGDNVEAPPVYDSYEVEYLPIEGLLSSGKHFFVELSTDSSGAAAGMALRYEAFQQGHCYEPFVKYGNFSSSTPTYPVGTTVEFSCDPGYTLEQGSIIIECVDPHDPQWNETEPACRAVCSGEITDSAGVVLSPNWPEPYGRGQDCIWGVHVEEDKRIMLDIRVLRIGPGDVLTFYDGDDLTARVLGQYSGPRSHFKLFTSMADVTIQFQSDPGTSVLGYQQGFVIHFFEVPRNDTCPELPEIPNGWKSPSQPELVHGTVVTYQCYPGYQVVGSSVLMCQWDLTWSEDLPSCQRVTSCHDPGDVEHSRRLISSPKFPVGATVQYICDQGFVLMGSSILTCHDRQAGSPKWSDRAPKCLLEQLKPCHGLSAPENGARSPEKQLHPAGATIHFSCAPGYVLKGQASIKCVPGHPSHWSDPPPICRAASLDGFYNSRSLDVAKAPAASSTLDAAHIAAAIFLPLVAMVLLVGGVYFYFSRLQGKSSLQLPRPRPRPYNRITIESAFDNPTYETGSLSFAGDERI

[2] = biological target: T2, cynomolgus monkey SEZ6 expressed on stably transfected CHO-K1 cells (cynomolgus monkey, UniProt Q53EL9 20-994 (human entry)); assay: flow cytometry on CHO-K1 cells expressing cynomolgus monkey SEZ6
T2 construct: also called CHO-cynoSEZ6; monkey SEZ6 on the cell membrane
T2 chain: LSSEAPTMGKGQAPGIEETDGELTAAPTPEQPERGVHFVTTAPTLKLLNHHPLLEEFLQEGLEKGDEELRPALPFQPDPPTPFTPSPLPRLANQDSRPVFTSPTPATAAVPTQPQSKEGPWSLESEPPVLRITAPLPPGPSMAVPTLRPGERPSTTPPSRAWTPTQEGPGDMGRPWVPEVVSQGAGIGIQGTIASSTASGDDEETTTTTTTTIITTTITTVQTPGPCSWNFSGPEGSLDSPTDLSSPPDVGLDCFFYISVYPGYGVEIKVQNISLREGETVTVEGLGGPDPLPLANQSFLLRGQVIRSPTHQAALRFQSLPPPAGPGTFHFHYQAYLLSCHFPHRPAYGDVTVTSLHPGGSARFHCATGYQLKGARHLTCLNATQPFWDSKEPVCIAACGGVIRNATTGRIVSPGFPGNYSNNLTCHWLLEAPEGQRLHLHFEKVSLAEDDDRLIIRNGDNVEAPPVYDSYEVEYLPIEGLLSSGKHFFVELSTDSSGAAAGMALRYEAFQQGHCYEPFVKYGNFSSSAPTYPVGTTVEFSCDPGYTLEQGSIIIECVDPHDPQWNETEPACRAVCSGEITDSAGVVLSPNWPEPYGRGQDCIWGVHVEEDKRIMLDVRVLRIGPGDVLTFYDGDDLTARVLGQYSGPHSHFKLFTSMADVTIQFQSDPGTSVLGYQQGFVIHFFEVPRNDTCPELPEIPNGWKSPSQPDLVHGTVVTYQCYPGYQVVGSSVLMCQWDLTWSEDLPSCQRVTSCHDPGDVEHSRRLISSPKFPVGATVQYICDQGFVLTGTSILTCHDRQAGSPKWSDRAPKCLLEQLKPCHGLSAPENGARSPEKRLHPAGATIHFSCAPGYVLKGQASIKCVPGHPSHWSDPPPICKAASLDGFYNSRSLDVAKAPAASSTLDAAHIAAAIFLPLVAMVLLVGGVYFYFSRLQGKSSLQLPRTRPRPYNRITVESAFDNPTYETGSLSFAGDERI

SEZ6L2-Fc = biological target: T3, SEZ6L2-Fc (human, UniProt Q6UXD5 28-844, limits assumed); assay: ELISA, coated Fc fusion protein at 1 ug/mL
T3 construct: The construct is not described beyond its name; also called SEZ6L2 protein; Human SEZ6L2; not shown: Fc
T3 sequence (Q6UXD5 28-844 limits assumed): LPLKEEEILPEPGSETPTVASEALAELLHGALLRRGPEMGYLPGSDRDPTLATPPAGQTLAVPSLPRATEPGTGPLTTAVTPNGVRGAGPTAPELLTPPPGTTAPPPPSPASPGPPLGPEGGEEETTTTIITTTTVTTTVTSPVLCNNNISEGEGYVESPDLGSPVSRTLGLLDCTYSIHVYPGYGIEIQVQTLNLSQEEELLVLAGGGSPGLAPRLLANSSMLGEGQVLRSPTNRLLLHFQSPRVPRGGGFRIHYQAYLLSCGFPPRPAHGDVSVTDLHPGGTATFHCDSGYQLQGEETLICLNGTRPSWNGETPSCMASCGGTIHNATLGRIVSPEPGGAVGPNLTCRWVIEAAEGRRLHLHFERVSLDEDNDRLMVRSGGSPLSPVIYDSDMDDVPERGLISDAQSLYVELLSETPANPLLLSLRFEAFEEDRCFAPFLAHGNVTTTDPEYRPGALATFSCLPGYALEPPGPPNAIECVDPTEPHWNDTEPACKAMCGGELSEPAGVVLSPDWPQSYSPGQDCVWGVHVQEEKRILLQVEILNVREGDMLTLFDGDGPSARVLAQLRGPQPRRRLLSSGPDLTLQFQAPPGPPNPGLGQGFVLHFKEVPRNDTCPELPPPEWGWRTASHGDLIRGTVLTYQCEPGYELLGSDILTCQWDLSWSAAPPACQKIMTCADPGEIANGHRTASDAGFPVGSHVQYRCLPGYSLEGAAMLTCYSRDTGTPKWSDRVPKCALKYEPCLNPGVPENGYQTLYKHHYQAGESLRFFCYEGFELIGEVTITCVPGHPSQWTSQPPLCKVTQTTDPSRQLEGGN

Row | EC50 [1] | EC50 [2] | binding result (SEZ6L2-Fc) | Binder
1 | 0.19 nM | 0.26 nM | – | B1
2 | – | – | no binding (tested: 10 nM) | B2
